Measurements: the RNAGym collection of RNA variant scans (doi:10.1073/pnas.2313332121)
This sample holds only a part of the variants without activity.

B1: TPR 5TU (parent)
chain: GGAUCUUCUCGAUCUAACAAAAAAGACAAAUCUGCCACAAAGCUUGAGAGCAUCUUCGGAUGCAGAGGCGGCAGCCUUCGGUGGCGCGAUAGCGCCAACGUUCUCAACUAUGACACGCAAAACGCGUGCUCCGUUGAAUGGAGUUUAUCAUG

Variants of: B1
Assay: polymerase ribozyme fitness, log enrichment relative to wild type (log ratio); higher = more active; in vitro selection for triplet polymerase activity
Method in brief: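 A heterodimeric triplet polymerase ribozyme had each of its subunits mutagenized by PCR into a library, which was transcribed. One round of in vitro selection, done in triplicate, annealed each library with a biotinylated primer, its partner subunit and triplets, then incubated it frozen at −7 °C before gel excision of extended constructs, streptavidin-bead capture and RT-PCR. Fitness is the logarithm of genotype enrichment relative to wild-type enrichment, based on Illumina sequencing of inputs and outputs and inverse-variance-weighted replicate averages. A base-2 logarithm is used, and genotypes were kept only with ≥10 input reads and ≥1 read per output.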

Variant	polymerase ribozyme fitness (log ratio)
U82A C99A C118U	-1.42
C76A A98U G136A U145A	0.194
C76A A91C G128C G143A	≤ -4.2
C72U A98U	0.351
A73G U77G C103G G136U	≤ -4.2
A73U C96U G112A	≤ -4.2
C76A G88C	≤ -4.2
A73G A142G	-1.38
C79A G84A A120U U127C U144C	≤ -4.2
G81C A120G	-0.127
A73G G92C	-0.498
C76G C96A G140A	≤ -4.2
C72U C76A	-1.91
G80A C93G C96U	-3.96
C76G C96A U104G G112C	≤ -4.2
C72G A91G C99G U144A	≤ -4.2
U77G G84A G117U U135G	≤ -4.2
C76U C87U U102C	-1.82
C76A C85G C87U G141C A142C	≤ -4.2
A73G G80U G94U U102C U127C	≤ -4.2
C79G U134C U146C	-4.11
G74C C116G A150U	≤ -4.2
C79U A91U C103G U135A	≤ -4.2
C76U G83C C118U	-0.363

Variant	polymerase ribozyme fitness (log ratio)
G74A A91C A115U G141A A147C U148G	≤ -4.2
C76G G94U C96G U111A	≤ -4.2
C76U U139G	-0.649
G81A G92A U101A	-3.21
C75U U82C C116A	0.695
C76A G140C	-3.36
G80C C93G	-4.2
A73U U82A C95U	-1.04
A73C U77C C93U	≤ -4.2
C75A G86A A97G G136U	≤ -4.2
U77A G92U C99G	-4.06
C72U U77C C96A A110G	≤ -4.2
A73G A119C	-0.028
G74A C114U	-3.85
C75U G92U C105G A115U	-4.17
G81A C85G	-1.86
C76A G86C C116G C123A	-2.66
G81A G86C A89U C125U C131U A137G	-4.06
A73G G92A C132U G141C	≤ -4.2
C75G U77G G80C A97U G124A	≤ -4.2
C76A A137G	-1.07
C75A U144G	≤ -4.2
C75G A106C C108A	≤ -4.2
C76A C85A G143U	≤ -4.2

Variant	polymerase ribozyme fitness (log ratio)
A73C C85A A110C A119U G136U	≤ -4.2
A73U C95U G140A A142C	≤ -4.2
G80C	-3.5
G80A	-0.0737
G80U	-0.409
G81U G84U	-2.19
C76U C95U U135C C149A	≤ -4.2
A73G G141A	-0.252
G81C G83U G133A	-3.88
A73C C95U	-2.49
U82C G112U G152A	-3.59
A73G C76U A142U	-2.11
C75A C87A G88A	≤ -4.2
A73U C85U C103G C105G C116U A142G	≤ -4.2
A73U G83U A122C U127A	≤ -4.2
C72U A91U A106C A115G A119U G143A U145G U151G	≤ -4.2
U82C A115G	-0.965
A73U C75G U78A A89G C93G C95A U146G	≤ -4.2
C76U U78A A107U G126A	≤ -4.2
U77A G86A C116G A121C	≤ -4.2
A73G U134C	0.53
C76G A106G G133A	≤ -4.2
G80U U82C	-1.68
G80A G92U	-3.2

Variant	polymerase ribozyme fitness (log ratio)
G80A G92C	-0.857
G80U A91G A110G	≤ -4.2
C75G U78G A115G	≤ -4.2
G80A A142U U144C	-3.55
U77G G92U	-3.92
A73U A122G	-0.995
U82A C93G G126U	-2.84
A73G C93G U130C	-3.08
C75G C95U	-2.19
C76U U101A	-1.35
U77C C79U C132A	≤ -4.2
U77G A89C U104C	≤ -4.2
G81U C87A A107G U144G	≤ -4.2
U77G G84A	≤ -4.2
C75U G136A	1.26
C75G C93A A113U A142G	-4.17
C76U C87A A91G A107U G126A U145A	≤ -4.2
A73G A98G U146G	-1.02
C75U G84U C99U A115C	-3.35
C76U G83U G84U C123U	-2.49
C76A C87U	-2.16
A73G C95G C96U G124U C149U G152A	≤ -4.2
G74A G84A A107G	≤ -4.2
U78G C79U G94C A115C G143A	≤ -4.2

Variant	polymerase ribozyme fitness (log ratio)
C75U A142C	-1.32
G80U C108G	≤ -4.2
G81U C85U	-0.466
G81A A107U	-3.89
G81A A91G	-2.82
C72G A147U	-3.16
U77A G94C A98U	≤ -4.2
A73G G86A A98U G117U C149U	-4.18
C79U U134A	-4.05
C76U C93U A97U	-0.802
U82C C96A	-0.964
A73C G92A U101G	≤ -4.2
C75G G92U	-2.52
G81C C87A C99G	≤ -4.2
C72U U104G A106G U144A	-4.01
C76A A110U U139C G143U	≤ -4.2
C72U A89U A122U U146A	-0.532
U82A C93U A119U U127G G143C	-4.06
C76A C85U A137G	-1.76
C75G U78C C99U C132G	≤ -4.2
C79G U82A C87U C103A	≤ -4.2
A73G U101C	0.659
U82C A115G A138U	-4.19
G81C G84A A115C G133U C149U	≤ -4.2

Variant	polymerase ribozyme fitness (log ratio)
G81A G86A A97C	-0.925
G74A G141A	-2.42
C76U C99G	-0.789
G81C U102C A147G	-3.21
A73U C75A G92A	≤ -4.2
U77A U134G	≤ -4.2
C76U C87U C116A A122U U146G	-3.7
G81U C85G A89C C93G	≤ -4.2
U78G G88U	≤ -4.2
G81C U135C	-2.22
A73U G84C C116A	-2.63
G80U A91C A106U C132G	≤ -4.2
U82A G83C C123U	-1.12
G81A A120U G128A	-3.29
G74C A147C	-4.06
U77C C116U	-3.64
C79U A89C	-3.38
A73G G92A C99G G141U	≤ -4.2
U78G U111G A113U	≤ -4.2
A73G G126A	-0.377
C72G C105U	-3.5
C75G A113U	≤ -4.2
C75U A98G G112C A122U	≤ -4.2
A73C A142C	≤ -4.2

Variant	polymerase ribozyme fitness (log ratio)
A73C C93G	≤ -4.2
G74C C99U A142U U146A	≤ -4.2
C75G C96A	-3.52
C75G C96U	-3.61
G80C G88C G92A G136U	≤ -4.2
A73G A98G	0.461
C76U C116G	0.541
C72U C93U U111C A119U A142G	≤ -4.2
C79A C87G A113G	≤ -4.2
C75U C85U A119G G143A A147C	-3.76
C76A C87U G92A	-2.16
C76A C87U G92C	-2.48
C75U A107G A142G	≤ -4.2
G74A A115C	-3.73
U82C A89U	-0.15
C76A A89U G141U	-2.94
C79U A98G	-3.44
G81A G94A G143U	-2.83
C79G C85A A138G U148A	≤ -4.2
A73G U78A C116A A138G	≤ -4.2
C72U A73C A98G C118A G124C U135C U139A	≤ -4.2
A73C	-2.13
A73G	0.127
